Laboratory results published in paper PMC7864929, “Crystal structure of the human PRPK–TPRKB complex” (Communications Biology, 2021).

B1: GST-tagged PRPK S250A (enzyme, human, UniProt Q96S44 1-253, looked up)
chain: MAAARATTPADGEEPAPEAEALAAARERSSRFLSGLELVKQGAEARVFRGRFQGRAAVIKHRFPKGYRHPALEARLGRRRTVQEARALLRCRRAGISAPVVFFVDYASNCLYMEEIEGSVTVRDYIQSTMETEKTPQGLSNLAKTIGQVLARMHDEDLIHGDLTTSNMLLKPPLEQLNIVLIDFGLSFISALPEDKGVDLYVLEKAFLSTHPNTETVFEAFLKSYSTSSKKARPVLKKLDEVRLRGRKRAMVG
notes: human p53-related protein kinase (PRPK, TP53RK) with S250A; source: E. coli BL21 lysate, captured on glutathione Sepharose 4B resin
B2: GST-tagged PRPK (wild type) (enzyme, human, UniProt Q96S44 1-253, looked up)
chain: MAAARATTPADGEEPAPEAEALAAARERSSRFLSGLELVKQGAEARVFRGRFQGRAAVIKHRFPKGYRHPALEARLGRRRTVQEARALLRCRRAGISAPVVFFVDYASNCLYMEEIEGSVTVRDYIQSTMETEKTPQGLSNLAKTIGQVLARMHDEDLIHGDLTTSNMLLKPPLEQLNIVLIDFGLSFISALPEDKGVDLYVLEKAFLSTHPNTETVFEAFLKSYSTSSKKARPVLKKLDEVRLRGRKRSMVG
notes: human p53-related protein kinase (PRPK, TP53RK); Cloned into pGEX-6p-1; Parent of the GST-PRPK mutants; also called GST-PRPK; TP53RK; source: E. coli BL21 lysate, captured on glutathione Sepharose 4B resin
B3: GST-tagged PRPK S250E (enzyme, human, UniProt Q96S44 1-253, looked up)
chain: MAAARATTPADGEEPAPEAEALAAARERSSRFLSGLELVKQGAEARVFRGRFQGRAAVIKHRFPKGYRHPALEARLGRRRTVQEARALLRCRRAGISAPVVFFVDYASNCLYMEEIEGSVTVRDYIQSTMETEKTPQGLSNLAKTIGQVLARMHDEDLIHGDLTTSNMLLKPPLEQLNIVLIDFGLSFISALPEDKGVDLYVLEKAFLSTHPNTETVFEAFLKSYSTSSKKARPVLKKLDEVRLRGRKREMVG
notes: human p53-related protein kinase (PRPK, TP53RK) with S250E; source: E. coli BL21 lysate, captured on glutathione Sepharose 4B resin
B4: GST-tagged PRPK R80A (enzyme, human, UniProt Q96S44 1-253, looked up)
chain: MAAARATTPADGEEPAPEAEALAAARERSSRFLSGLELVKQGAEARVFRGRFQGRAAVIKHRFPKGYRHPALEARLGRRATVQEARALLRCRRAGISAPVVFFVDYASNCLYMEEIEGSVTVRDYIQSTMETEKTPQGLSNLAKTIGQVLARMHDEDLIHGDLTTSNMLLKPPLEQLNIVLIDFGLSFISALPEDKGVDLYVLEKAFLSTHPNTETVFEAFLKSYSTSSKKARPVLKKLDEVRLRGRKRSMVG
notes: human p53-related protein kinase (PRPK, TP53RK) with R80A; source: E. coli BL21 lysate, captured on glutathione Sepharose 4B resin
B5: GST-tagged PRPK K205A (enzyme, human, UniProt Q96S44 1-253, looked up)
chain: MAAARATTPADGEEPAPEAEALAAARERSSRFLSGLELVKQGAEARVFRGRFQGRAAVIKHRFPKGYRHPALEARLGRRRTVQEARALLRCRRAGISAPVVFFVDYASNCLYMEEIEGSVTVRDYIQSTMETEKTPQGLSNLAKTIGQVLARMHDEDLIHGDLTTSNMLLKPPLEQLNIVLIDFGLSFISALPEDKGVDLYVLEAAFLSTHPNTETVFEAFLKSYSTSSKKARPVLKKLDEVRLRGRKRSMVG
notes: human p53-related protein kinase (PRPK, TP53RK) with K205A; source: E. coli BL21 lysate, captured on glutathione Sepharose 4B resin
B6: GST-tagged PRPK K65A (enzyme, human, UniProt Q96S44 1-253, looked up)
chain: MAAARATTPADGEEPAPEAEALAAARERSSRFLSGLELVKQGAEARVFRGRFQGRAAVIKHRFPAGYRHPALEARLGRRRTVQEARALLRCRRAGISAPVVFFVDYASNCLYMEEIEGSVTVRDYIQSTMETEKTPQGLSNLAKTIGQVLARMHDEDLIHGDLTTSNMLLKPPLEQLNIVLIDFGLSFISALPEDKGVDLYVLEKAFLSTHPNTETVFEAFLKSYSTSSKKARPVLKKLDEVRLRGRKRSMVG
notes: human p53-related protein kinase (PRPK, TP53RK) with K65A; source: E. coli BL21 lysate, captured on glutathione Sepharose 4B resin

The binders below were run against T1, MBP-tagged OSGEP (human, UniProt Q9NPF4 1-335) (assay: pull-down; GST-tagged PRPK proteins captured on 20 µl glutathione Sepharose 4B from BL21 lysates, then incubated with about 15 µg purified His-TPRKB or MBP-OSGEP; 20 mM Tris-HCl pH 8.0, 300 mM NaCl, 0.1% Nonidet P-40, 5% glycerol, 2 mM DTT, 0.4 mM PMSF; 2 h at 4°C; 4 washes; Western blot with anti-His or anti-MBP). Conditions: both partners purified.
T1 construct: human OSGEP (gene bought from DNAsu); Cloned into a modified pMal-c2X vector; also called MBP-OSGEP; Kae1 (yeast ortholog); source: E. coli BL21-CodonPlus (DE3), purified (amylose resin, HiTrap Q anion exchange)
T1 sequence (looked up): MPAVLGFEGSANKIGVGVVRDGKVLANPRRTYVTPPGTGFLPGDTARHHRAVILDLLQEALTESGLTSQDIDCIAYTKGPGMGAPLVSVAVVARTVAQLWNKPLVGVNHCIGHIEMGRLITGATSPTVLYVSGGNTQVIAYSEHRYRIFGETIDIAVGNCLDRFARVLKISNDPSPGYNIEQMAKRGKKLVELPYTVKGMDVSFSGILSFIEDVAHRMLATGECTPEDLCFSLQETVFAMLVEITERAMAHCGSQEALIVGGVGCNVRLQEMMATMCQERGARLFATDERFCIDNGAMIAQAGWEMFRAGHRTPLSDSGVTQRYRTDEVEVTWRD

Binding result, binds:
B1, B2, B3, B4, B5, B6
